In paper PMC6581795, “Phosphorylation of FANCD2 Inhibits the FANCD2/FANCI Complex and Suppresses the Fanconi Anemia Pathway in the Absence of DNA Damage”:

Assays:
FANCD2-6A;FANCI = FANCD2-6A;FANCI (Homo sapiens;Homo sapiens?, UniProt Q9BXW9;Q9NVI1 1-1451;1-1328, S882A;T884A;S886A;S891A;T896A;S898A|); assay: EMSA; untreated; similar to WT; EMSA: 1 nM DNA, 25 mM Tris-HCl pH 7.5, 100 mM NaCl, 1 mM EDTA, 6% glycerol, 1 mM DTT, room temperature 1 h; 4% PAGE 0.4x TBE at 4 C; conditions: protein: recombinant;recombinant; copies: 1;1
FANCD2-6A;FANCI, sequence (Q9BXW9 whole entry S882A/T884A/S886A/S891A/T896A/S898A, chain 1 of 2): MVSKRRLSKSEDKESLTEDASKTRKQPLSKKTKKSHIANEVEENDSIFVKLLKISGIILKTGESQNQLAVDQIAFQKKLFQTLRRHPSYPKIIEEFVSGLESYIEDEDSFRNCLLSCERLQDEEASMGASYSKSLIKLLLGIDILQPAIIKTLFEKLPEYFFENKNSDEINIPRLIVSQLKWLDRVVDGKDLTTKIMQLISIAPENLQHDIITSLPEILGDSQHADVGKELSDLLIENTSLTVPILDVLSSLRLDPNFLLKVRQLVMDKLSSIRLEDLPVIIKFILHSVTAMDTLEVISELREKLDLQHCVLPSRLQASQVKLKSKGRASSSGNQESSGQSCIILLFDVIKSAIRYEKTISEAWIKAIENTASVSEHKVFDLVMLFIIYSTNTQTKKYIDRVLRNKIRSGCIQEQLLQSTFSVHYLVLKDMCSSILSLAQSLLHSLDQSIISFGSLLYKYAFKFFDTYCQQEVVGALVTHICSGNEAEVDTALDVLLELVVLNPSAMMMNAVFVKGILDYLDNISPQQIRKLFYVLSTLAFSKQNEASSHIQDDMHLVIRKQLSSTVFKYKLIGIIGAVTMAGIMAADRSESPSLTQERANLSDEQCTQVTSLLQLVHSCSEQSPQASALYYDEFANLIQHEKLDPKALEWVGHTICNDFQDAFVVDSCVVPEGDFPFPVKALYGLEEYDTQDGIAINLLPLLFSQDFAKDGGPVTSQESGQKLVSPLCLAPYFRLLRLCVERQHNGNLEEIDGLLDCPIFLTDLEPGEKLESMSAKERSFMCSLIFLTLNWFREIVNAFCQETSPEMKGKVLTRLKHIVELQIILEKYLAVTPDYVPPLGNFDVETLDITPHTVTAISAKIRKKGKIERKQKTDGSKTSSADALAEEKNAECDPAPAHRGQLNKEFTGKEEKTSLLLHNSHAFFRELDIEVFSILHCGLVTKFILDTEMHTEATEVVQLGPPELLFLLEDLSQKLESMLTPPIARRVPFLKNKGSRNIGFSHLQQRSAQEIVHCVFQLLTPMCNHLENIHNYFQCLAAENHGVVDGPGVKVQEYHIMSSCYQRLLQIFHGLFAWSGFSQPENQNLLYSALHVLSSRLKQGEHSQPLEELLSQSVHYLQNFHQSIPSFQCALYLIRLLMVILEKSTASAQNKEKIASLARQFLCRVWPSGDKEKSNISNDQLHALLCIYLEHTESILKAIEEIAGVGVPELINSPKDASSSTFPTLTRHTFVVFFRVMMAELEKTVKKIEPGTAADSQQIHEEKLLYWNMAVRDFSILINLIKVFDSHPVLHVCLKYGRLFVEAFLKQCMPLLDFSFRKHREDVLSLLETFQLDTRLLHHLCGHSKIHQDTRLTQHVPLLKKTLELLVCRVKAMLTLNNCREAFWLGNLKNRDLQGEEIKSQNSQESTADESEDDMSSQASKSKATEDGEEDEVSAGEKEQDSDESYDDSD
FANCD2-6A;FANCI, sequence (Q9NVI1 whole entry, stated change not applied, chain 2 of 2): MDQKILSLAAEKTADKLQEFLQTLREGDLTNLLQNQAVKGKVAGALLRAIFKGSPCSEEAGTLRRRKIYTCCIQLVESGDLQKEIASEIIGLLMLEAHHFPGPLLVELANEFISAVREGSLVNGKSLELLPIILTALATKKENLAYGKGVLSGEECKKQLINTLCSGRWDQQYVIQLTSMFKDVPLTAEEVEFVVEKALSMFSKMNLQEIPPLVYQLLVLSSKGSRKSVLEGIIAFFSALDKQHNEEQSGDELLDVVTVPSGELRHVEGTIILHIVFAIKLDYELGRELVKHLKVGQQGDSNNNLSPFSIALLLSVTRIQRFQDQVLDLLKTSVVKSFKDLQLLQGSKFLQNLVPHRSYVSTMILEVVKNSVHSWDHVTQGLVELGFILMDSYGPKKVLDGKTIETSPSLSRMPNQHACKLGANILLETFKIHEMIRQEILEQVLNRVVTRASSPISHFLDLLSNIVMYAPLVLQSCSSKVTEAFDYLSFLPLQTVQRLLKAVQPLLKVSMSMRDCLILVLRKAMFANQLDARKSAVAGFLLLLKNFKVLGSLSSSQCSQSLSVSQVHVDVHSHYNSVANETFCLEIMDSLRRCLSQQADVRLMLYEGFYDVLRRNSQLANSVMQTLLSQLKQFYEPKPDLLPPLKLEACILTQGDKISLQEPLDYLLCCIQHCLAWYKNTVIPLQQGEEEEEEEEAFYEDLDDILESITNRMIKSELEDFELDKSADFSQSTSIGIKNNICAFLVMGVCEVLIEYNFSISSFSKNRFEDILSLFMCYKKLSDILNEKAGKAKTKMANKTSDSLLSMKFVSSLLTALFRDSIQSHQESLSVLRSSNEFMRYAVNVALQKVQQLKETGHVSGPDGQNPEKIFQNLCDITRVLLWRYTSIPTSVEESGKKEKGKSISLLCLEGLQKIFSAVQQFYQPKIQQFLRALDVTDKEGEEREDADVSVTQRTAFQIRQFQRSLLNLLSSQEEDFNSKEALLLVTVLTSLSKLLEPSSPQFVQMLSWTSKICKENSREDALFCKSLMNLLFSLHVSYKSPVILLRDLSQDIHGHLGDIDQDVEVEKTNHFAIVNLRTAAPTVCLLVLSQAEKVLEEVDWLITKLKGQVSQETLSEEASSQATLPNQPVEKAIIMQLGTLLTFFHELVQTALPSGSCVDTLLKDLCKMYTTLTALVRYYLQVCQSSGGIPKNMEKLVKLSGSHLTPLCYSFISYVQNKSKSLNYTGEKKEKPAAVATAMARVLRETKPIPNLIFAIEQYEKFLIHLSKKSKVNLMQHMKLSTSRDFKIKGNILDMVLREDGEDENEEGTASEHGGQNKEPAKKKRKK

FANCD2 WT;FANCI = FANCD2 WT;FANCI (Homo sapiens;Homo sapiens?, UniProt Q9BXW9;Q9NVI1 1-1451;1-1328, |); assay: EMSA; untreated; EMSA: 1 nM DNA, 25 mM Tris-HCl pH 7.5, 100 mM NaCl, 1 mM EDTA, 6% glycerol, 1 mM DTT, room temperature 1 h; 4% PAGE 0.4x TBE at 4 C; conditions: protein: recombinant;recombinant; copies: 1;1
FANCD2 WT;FANCI, sequence (Q9BXW9 whole entry, chain 1 of 2): as the sequence (Q9BXW9 whole entry S882A/T884A/S886A/S891A/T896A/S898A, chain 1 of 2) above, with A882S, A884T, A886S, A891S, A896T, A898S counted along it
FANCD2 WT;FANCI, sequence (Q9NVI1 whole entry, chain 2 of 2): as the sequence (Q9NVI1 whole entry, stated change not applied, chain 2 of 2) above

B1: ICL14 Y-shaped DNA (mixed)
DNA 1: CATTGTGAATTCGCCTCTCTGTCTAGCCGAAGCTCGAAACGATCTTGTGC
DNA 2: GTCCATCAAAGTTCGACTGTGCGGCTAGACAGAGAGGCGAATTCACAATG
B1: binds (FANCD2-6A;FANCI); binds (FANCD2 WT;FANCI).
